From the DeepSol protein solubility set

Assay: soluble on expression in E. coli; label from the status in PepcDB or PDB records

Which “soluble on expression in E. coli” value does the source give for “MGSDKIHHHHHHAQNQDCAFFFPNQEGEQITRNCYTADGKLTNILVYRVDQAYEYPSGMEVVANYTFADAAGKTLNSGQMVARCSDGNFSMSMGDVATFPTALNMMNADVYMMGDLMNYPDAFSNPMNPGDDDEFDDGTLRLYQKGNKNNRAEISVFDREFVTTETVNTPAGAFYCTKVKYEMNIWTPKETIKGYGYEWYAPNIGIVRSEQYNNKKELQSYSVLERIKK” here?
The value was “not soluble”.

Which “soluble on expression in E. coli” value does the source give for “MSEEKPLKVSYSKQFVRDLTDLAKRSPNVLIGSKYITAIHCLLNRLPLPENYQDHALVGEWKGYRDCHIQGDLVLIYQYVIQDEFDELKFSRLNIHSQTALK” here?
The value was “not soluble”.

With “MSLTMVQVTLEVNGRQVAHEAPPRMHLGDFLRDQARLTGTHLGCEHGVCGACTVLVDGQPVRSCITYAVACEGRQVTTIEGYDGDPVMARLRAAFTKYHALQCGYCTPGMLTTSRDIVLRLPDADEARVRVELSGNLCRCTGYMGIVGAVMSVLRDLREQPDAAVQALRAAAADGRLPAPRGEQPIAFQPFTPSAPSGKGNQIVDAFTVPFPAAEVWAFMVDLPAVAACLPGAVIEETDGQRVKGKIAIKFGPMAAAFNGAARLERDEAAMRAVFRGAGQDSLSQSRATGDIAYQVEAVSENETRVKVDLQYALQGPLAQFSRSGLVQDFVRRMIADFGKNVTARLREGHHHHHH” as the sequence, how does the “soluble on expression in E. coli” value read?
Its value is “soluble”.

Which “soluble on expression in E. coli” value does the source give for “VGTRSKSRTRQLKQSNGCTATTSGASDRRRRARRRTAPAWLREDEWLRHHLPHPPRQLSRCLHRRRRSACHHRYSRRTPKGGLPMTSSLVPISEARAHLSRLVRESADDDVVLMNHGRPAAILISAERYESLMEELEDLRDRLSVHEREHVTMPLDKLGAELGVDIGRV” here?
Its value is “not soluble”.

Which “soluble on expression in E. coli” value does the source give for “SIKNGILYLEDPVNHEWYPHYFVLTSSKIYYSEETSSDQGNEDEEEPKEASGSTELHSSLEVLFQGPNPAILEPEREHLDENSPLGDLLRGVLDVPACQIAIRPEGKNNRLFVFSISMPSVAQWSLDVAADSQEELQDWVKKIREVAQTA” here?
Its value is “soluble”.

Which “soluble on expression in E. coli” value does the source give for “MKNIKKNQVMNLGPNSKLLKEYKSQLIELNIEQFEAGIGLILGDAYIRSRDEGKTYCMQFEWKNKAYMDHVCLLYDQWVLSPPHKKERVNHLGNLVITWGAQTFKHQAFNKLANLFIVNNKKTIPNNLVENYLTPMSLAYWFMDDGGKWDYNKNSTNKSIVLNTQSFTFEEVEYLVKGLRNKFQLNCYVKINKNKPIIYIDSMSYLIFYNLIKPYLIPQMMYKLPNTISSETFLK” here?
The value was “soluble”.

With “MSLAIIEEARSGQITDEMKEISKLEGIPVEKVRNRISECKIILIRNAKYPSKKLVPIGKGLTTKVNINIGTSDEVVNLQMELEKVKVANRWGDTLMDLSTGGDLDDIRREIIRASELPVGTVPVYQVFIESFKKKSGGAYFTEDELLSTVEKHLKDGVAFMTIHAGITKELAIRALKSNRIIPIVSRGGDMIAGWMIHNNSENPYRKHWGYLLEMFKEYDAVISLGDALRPGATGDAHDEFQVGELLETARLVKSALKEGVQVMVEGPGHVPLNEIAWDVKLMKKLTGGVPYYVLGPLPIDVGAPYDHIASAIGAAISSAAGADLLCYLTPAEHLGLPTVKQVEEGAIAYRIAAHAGDVVKLGRRVRKWDDEVSYYRGKLEWDNMISRLIDPQRAYQVYTQFGIPKVKACTMCGGYCPMMWAMDQVRKIGSSSSLEGHHHHHH” as the sequence, how does the “soluble on expression in E. coli” value read?
The value was “soluble”.

With “MSLSRAFLVAAPSSGSGKTTITLGLLRLFARRGMAVQPFKCGPDYLDTMLHAMAASTGETARPGLNLDTFMASKEHVRSLFARNAASADISVIEGVMGLFDGAEKSDGSSAEIAALLGLPVIMVIDGSKIAYSAAPILYGFKHFDPSVKVAGVIFNRVGSASHYSHLEAAAKDVGVEPLGYLPRNSDITISERHLGLNTSAEYDREKLIDAMAEHIEKTVNIERLLDVARIELPEIEQAQPVTKKLDKVIAVARDEAFNFIYHDNLETLKRYGEVRFFSPLHDRELPKADLVYLAGGYPELHAEALAANKTMRKAIAEWCRNRGATWAECGGLMYLGKTLTLADGAAHPMCGVLDLDTTMQEARLTLGYRKVYPAGADGVELRGHEFHYSRIWRQGEIDTIAEIRNARGQQVGTKLFRVGNTIASYLHLYWGEHDYLANWFDVLREGHHHHHH” as the sequence, how does the “soluble on expression in E. coli” value read?
Its value is “soluble”.

For “MGSDKIHHHHHHMSEKSASNNKAEFKRQSSPFREIISADHPIYKPAKGRYWLYVALPCPWAQRTLITRALKGLAPIIGCSVAHWHLDDKGWRFLEEGDGKTNERHWFDIAGGISSVNLNTSTPVANIPNNAHRLLVDGTDEPHYGYKRLSDFYFKTKPDYKGRFTVPVLWDLETCTIVNNESSDIIGIMNSAAFDEFVGEEYRQVRLVPRSLEAQITEFNSWVYDKINNGVYKAGFAECAEVYEREVTSLFQYLDKLENLLDKKYTDLEAEYGKNNKDKILDRYFAIGDTLTEADVRLYPTIVRFDVVYHQHFKCNLATIRDDYSRIHTWLKNIYWRHEAFQRTTDFTHIKLGYTRSQPRVNPIGITPLGPKPDIRPP”, which “soluble on expression in E. coli” value is on record?
Its value is “not soluble”.

For “MPTPPAASSLAAQMGESPAPLYARVKHMIALQIQNGTWPPHHRVPSESELVTQLGFSRMTINRALRELTVEGLLVRMQGVGTFVAEPKSQSALFEVHNIADEIAARGHRHTCKVMVLKEEAAGSERALALDMREGQRVFHSLIVHFENDIPVQIEDRFVNAQVAPDYLKQDFTLQTPYAYLSQVAPLTEGEHVVEAILAEADECKLLQIDAGEPCLLIRRRTWSGRQPVTAARLIHPGSRHRLEGRFTK”, which “soluble on expression in E. coli” value is on record?
The value was “not soluble”.

Which “soluble on expression in E. coli” value does the source give for “MNDNKILVVNAGSSSIKFQLFDYHKKVLAKALCERIFVDGFFKLEFNEQKVEEKVAFPDHHAAVTHFLNTLKKHKIIQELSDIILVGHRVVQGANYFKDSVIVDAEALAKIKEFIKLAPLHNKPEADVIEIFFKEVPSAKNVAVFDTTFHTTIPQENYLYAVPRSWEQKHLVRRYGFHGTSYKFINNYLEKHLNKQNLNLIVCHLGNGASVCAIKNGKSFNTSMGFTPLEGLIMGTRSGDLDPAIIGYVAEQENMSASDVVNALNKKSGMLALTGASDMRDVFAKPQENAVAIKMYVNRVADYIAKYLNQLEGNIDGLVFTGGIGENASDCVELFINAVKSLGFATDLKLFVKYGDSCVVSTPQSKYKIYRVRTNEELMIVEDSIRLTQK” here?
Its value is “soluble”.

Which “soluble on expression in E. coli” value does the source give for “APVPTYQTLIVRPGDLQQSVLATGKLDALRKVDVGAQVSGQLKTLSVAIGDKVKKDQLLGVIDPEQAENQIKEVEATLMELRAQRQQAEAELKLARVTYSRQQRLAQTQAVSQQDLDNAATEMAVKQAQIGTIDAQIKRNQASLDTAKTNLDYTRIVAPMAGEVTQITTLQGQTVIAAQQAPNILTLADMSAMLVKAQVSEADVIHLKPGQKAWFTVLGDQLTRYEGQIKDVLPTPEKVNDAIFYYARFEVPNPNGLLRLDMTAQVHIQLTDVKNVLTIPLSALGDPVGDNRYKVKLLRNGETREREVTIGARNDTDVEIVKGLEAGDEVVIGEAKPGAAQ” here?
The value was “soluble”.

Which “soluble on expression in E. coli” value does the source give for “SNASAFTEGTDYMVLEKPIPNADKTLIKVFSYACPFCYKYDKAVTGPVSDKVADLVTFTPFHLETKGEYGKQASEVFAVLIAKDKAAGISLFDAKSQFKKAKFAWYAAYHDKKERWSDGKDPAAFIKTGLDAAGMSQADFEAALKDPAVQETLEKWKAAYDVAKIQGVPAYVVNGKYLIYTKNIKSIDSMAELVRELATKK” here?
Its value is “soluble”.

For “MGSDKIHHHHHHMDIQNMPREQLGVCAEGNLHSVYLMFNANDNVESQLRPCIANVAQYIYELTDQYSDSAFNGFVAIGANYWDSLYPESRPEMLKPFPAMQEGNREAPAIEYDLFVHLRCDRYDILHLVANEISQMFEDLVELVEEERGFRFMDSRDLTGFVDGTENPKGRHRQEVALVGSEDPEFKGGSYIHVQKYAHNLSKWHRLPLKKQEDIIGRTKQDNIEYESEDKPLTSHIKRVNLKDENGKSIEILRQSMPYGSLKEQGLMFISTCRTPDHFEKMLHSMVFGDGAGNHDHLMHFTSALTGSSFFAPSLDFLMQFDN”, which “soluble on expression in E. coli” value is on record?
Its value is “not soluble”.

For “MKFLHTADLHLGKIVSGVSMLAEQEYILAQITKIAEEEQVDALILAGDLYDRAVPPADAVKVLNDILVKWNVELGIPIFAISGNHDSAERLAFGSQWYESSKLYMKGKCTSQFEAISFMDAEVWLVPYHEPAIIREAFADNSIRSFEDAMQAVTKQIRSKWDTSKAQILVGHAFVSGGIPSDSERQLAIGNVDRVSTDCFDGFTYTALGHLHHPHAIRHPSIFYSGSPLKYSFSEANDHKSVRIVELEGKELVSVTERFLTPKHDMRIISGTLAELTENLVENPDDFFQVNLMDEGALIDPMGKLRQFYPNILHLERKKQTLKETQDNFEEIMKKDDLELFGQFFEHVNGTELTETQKQKLADVFEQARKEDAE”, which “soluble on expression in E. coli” value is on record?
Its value is “not soluble”.
